Laboratory results from IntAct's records for PubMed 15611164.

B1: Ankyrin repeat-containing protein YAR1 (Saccharomyces cerevisiae), P46683 (parent)
chain: MGLHSEPLDQEDQDTIILDARAGDLDSLKDIFTTLVSPELLSTCKESESDSTALHMAAANGHIETVRYILETVSRANSAEDLKAFVNEVNKTGNTALHWASLNGKLDVVKLLCDEYEADPFIRNKFGHDAIFEAENSGKEEVETYFLKKYDVEPEDDEEDTQTEGKNSVQITKGTEIEQVTKEATEALREETEKLNINKD
partner: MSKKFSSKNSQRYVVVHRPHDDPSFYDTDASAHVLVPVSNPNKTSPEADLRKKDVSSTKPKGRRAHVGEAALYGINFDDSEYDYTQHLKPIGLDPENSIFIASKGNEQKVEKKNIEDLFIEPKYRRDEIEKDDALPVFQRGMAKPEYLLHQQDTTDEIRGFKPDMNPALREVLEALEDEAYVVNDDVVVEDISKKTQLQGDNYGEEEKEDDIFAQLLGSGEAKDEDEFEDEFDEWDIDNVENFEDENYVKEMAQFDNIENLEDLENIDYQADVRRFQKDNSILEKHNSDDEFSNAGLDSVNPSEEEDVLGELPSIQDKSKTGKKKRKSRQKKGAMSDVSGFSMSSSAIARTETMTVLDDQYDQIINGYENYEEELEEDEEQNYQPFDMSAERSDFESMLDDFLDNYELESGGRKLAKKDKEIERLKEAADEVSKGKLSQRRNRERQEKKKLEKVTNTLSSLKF

Variants of: B1
Conditions: with ltv1_yeast LTV1, P34078

Variant	effect of a mutation on the interaction
K91A	decreasing interaction
K125A	decreasing interaction
